# Where a chain is given by its changes, count along the chain named.
# B1: MU727 (VHH)
# VHH: DVQLQASGGGLVQAGGSLRLSCAGSGRTFSSYAMGWFRQAPGKEREFVASISWSGSRTNYGVPVKGRFTISRDNAKNTVYLQMSSLKPEDTAVYYCAADRFAVAIGTHDLDYWGQGTQVTVSS
# notes: His6-Myc-tagged monovalent VHH; also called s-14.1d; family 9
# B2: Jk46 (VHH)
# VHH: QVQLQESGGGLVQAGGSLRLSCAASGRTFSSVAMGWFRQAPGKEREFVATINWSGGRTTYADSVKGRFTISRDSAKNTVYLQMNSLKPEDTAVYYCAADRFSVVAVEYDYWGQGTQVTVSS
# notes: His6-Myc-tagged monovalent VHH; also called family 7
# B3: Jk24 (VHH)
# VHH: QVQLQESGGGLVQPGGSLRLSCAASGIILRIYDMGWYRQAPGKQRELVAEITSGGSTNYADSVKGRFTISRDNAENTVSLQMNSLKPGDTAVYYCNAHHTFAGAYWGQGTQVTVSS
# notes: His6-Myc-tagged monovalent VHH; also called I-8.2c; family 2
# B4: Jk32 (VHH)
# VHH: B3 VHH with I27S, I28T, I31L, P41D, D61N, G88E, H98E, A102M
# notes: His6-Myc-tagged monovalent VHH; also called I-8.2e; family 2
# B5: Jk30 (VHH)
# VHH: B3 VHH with E50A, S56R, P87S, H98D, A104V
# notes: His6-Myc-tagged monovalent VHH; also called I-8.2b; family 2
# B6: Jk31 (VHH)
# VHH: B3 VHH with I31L, A40T, P87S, H98D, A104V
# notes: His6-Myc-tagged monovalent VHH; also called I-8.2d; family 2
# B7: MU413 (VHH)
# VHH: DVQLQASGGGLVQTGDSLTVSCAASGLSFTRYTMGWYREVPGKERREFVAAVKPAGDSAYYGASVKGRFTASRDNAKNTVTLQMNSLKPEDTAIYYCAAGFPVLTALHIADPDYWGQGTQVTVSP
# notes: His6-Myc-tagged monovalent VHH; also called I-15.2b; family 13
# B8: JK12 (VHH)
# VHH: QVQLQESGGGLVQPGGSLRLSCVASERIFSRNTMGWYRQAPGKQRELVARIASLGITNYADSVKGRFTISSDNAKNTVYLQMNNLKPEDTAVYYCNYWHYAAGRDYWGQGTQVTVSS
# notes: His6-Myc-tagged monovalent VHH; also called I-9.1a; family 4
# B9: Jk14 (VHH)
# VHH: B8 VHH with Q1E, Q5V, P14A
# notes: His6-Myc-tagged monovalent VHH; also called I-9.1b; family 4
# B10: Jk42 (VHH)
# VHH: B8 VHH with Q3K, R50Y, A52T, T57A, P87S, Y94N
# notes: His6-Myc-tagged monovalent VHH; also called I-9.1d; family 4
# B11: Jk25 (VHH)
# VHH: QVKLQESGGGLVQPGGSLRLSCVASGSISSIITMGWYRQAPGKQREFVARVIIGGSTGYADSVKGRFTISRDNTKNTVYLEMNSLKPEDTAVYYCNAGNPGTSYHYWGQGTQVTVSS
# notes: His6-Myc-tagged monovalent VHH; also called I-9.3a; family 6
# B12: MU1103 (VHH)
# VHH: DVQLQASGGGLVQAGGSLRLSCAASEFTFDDYVIGWFRQAPGKEREGVSSISSDGSTYYADSVKGRFTISSDNAKNTVYLHMNSLKPEDTAVYYCAADVTLNPFTGWTTRSGPMYRYEYDYWGQGTQVTVSS
# notes: His6-Myc-tagged monovalent VHH; also called s-24.1c; family 22
# B13: Jk20 (VHH)
# VHH: QVQLQESGGGLVQAGGSLRLSCAISGRTFIADMGWFRQAPGKEREFQAGITWFGGSTYYADSVKGRFTISRDNTKNTLYLQMNSLKPEDTAIYYCAAGLKRIGDQREADYWGQGTQVTVSS
# notes: His6-Myc-tagged monovalent VHH; also called I-13.1a; family 8
# B14: Jk26 (VHH)
# VHH: B13 VHH with L18V, A31N
# notes: His6-Myc-tagged monovalent VHH; also called I-13.1b; family 8
# B15: Jk27 (VHH)
# VHH: B13 VHH with Q1E, Q5V, S120A
# notes: His6-Myc-tagged monovalent VHH; also called s-13.1a; family 8
# B16: Jk34 (VHH)
# VHH: QVQLQESGGRLVQPGGSLRLSCAASGRTFSNYAMAWFRQGPGKEREFVAAISAADSTLYADFVKGRFTISRDNAKNTVYLQMNSLKPEDTAVYYCAARWWIAVRAPAEYNYWGQGTQVTVSS
# notes: His6-Myc-tagged monovalent VHH; also called I-14.2c; family 11
# B17: Jk35 (VHH)
# VHH: B16 VHH with Q3K
# notes: His6-Myc-tagged monovalent VHH; also called I-14.2d; family 11
# B18: WF129 (VHH)
# VHH: DVQLQASGGGLVQAGGSLRLSCEFSGRTFSGFAMGWFRQFPGKEREFVAAINWSGSSVDYSDSVKGRFTISRDNVKSTMYLVMNSLKPEDTAVYYCAEARSAELGSSRKIQGYDQWGRGTQVTVSS
# notes: His6-Myc-tagged monovalent VHH; also called I-17.1b; family 18
# B19: WF141 (VHH)
# VHH: B18 VHH with Q121R
# notes: His6-Myc-tagged monovalent VHH; also called I-17.1c; family 18
# B20: MU1065 (VHH)
# VHH: DVQLQESGGGLVQAGDSLRLSCAASGPHFNNYAIGWFRQAPGKEREFVAGISWSSGSLLYSDSVKGRFTISRDNDKNTAYLQMNSLKPEDTALYYCAAQYQERYYSDFSLKEKGMEYWGKGTLVTVSS
# notes: His6-Myc-tagged monovalent VHH; also called I-19.1b; family 19
# B21: WF139 (VHH)
# VHH: SGGGLVQAGGSQRLSCAASGHTFSSYSMAWFRQAPGKEREFVAANIMSGTNTYYADSVRGRFTMSRDIAKNTVYLQMNSLKEEDTALYYCAAADRFRGWATWRDDPDQYDYWDQGTQVTVSS
# notes: His6-Myc-tagged monovalent VHH; also called s-19b; s-19.1b
# B22: WF140 (VHH)
# VHH: DVQLQASGGGSVQAGGSLRLSCAASGLSFSDYAMGWFRQEPGKERRFVASIRSSGGTTYAESVKGRFTISRDNAKNTMYLQMNNLKPEDTAVYYCAADRLVITKLSIADPGYWGQGTQVTVSS
# notes: also called s-15a; s-15.1a
# B23: WF32 (VHH)
# VHH: QVQLQESGGGLVQAGGSLRLSCAASGIILRIYDMGWYRQAPGKQRELVAAITSGGSTNYADSVKGRFTISRDNAKSMVYLQMNSLKPEDTAVYYCNAWHVFRGNYWGQGTQVTVSS
# notes: His6-Myc-tagged monovalent VHH; also called I-8.2f; family 2
# B24: WF114 (VHH)
# VHH: VQLQESGGGLVQAGGSLRLSCAASGFTFDDYVIGWFRQAPGKECEGVSSISNNNSTYYADSVKGRFTIASDNAKNTVYLQMNSLKPEDTAVYYCAADVTLNPFTGWNTRSGPMYRYEYDYWGQGTQVTVSS
# notes: His6-Myc-tagged monovalent VHH; also called s+/-24b; s-24.1b
# B25: MU1105 (VHH)
# VHH: B12 VHH with E26G, D54S, T57I, H81Q, Y94F, T108D
# notes: His6-Myc-tagged monovalent VHH; also called I-24a; I-24.1a
# B26: MU1068 (VHH)
# VHH: DVQLQASGGGSVQEGESLKLSCVGSGRTFSDWAMGWYRQAPGKDREFVAAVSGAGRGGKPSYANSVKGRFTVSRDNAKNTVYLQMDNLKPEDTAVYYCAADRLVLVALSIADPGFWGQGTRVTVSS
# notes: also called L-15.1b; I-15.1b
# B27: MU274 (VHH)
# VHH: DVQLQESGGGLVQAGGSLRLSCAASGVSFSRYTMGWYREVPGKERREFVAAVRPSGDSTYYGNSVKGRFSISRDDDKNIVYLQMNSLKPEDTAVYYCAAGFPVLVALSIADPDYWGQGTQVTVST
# notes: also called L-15.2a; I-15.2a
# B28: MU415 (VHH)
# VHH: VQLQASGGGLVQAGGSLRLSCTVSGFTSDDYTVGWFRQAPGLKREGLSCLSRRDGRFYHSNSVKGRFTMSSDDNKNTVYLQLDSLKPDDTAVYYCAATTSVVVLLAPNWYEYWGQGTQVTVSS
# notes: also called L+15; I+15b
# B29: MU523 (VHH)
# VHH: DVQLQESGGGLVQAGSSLRISCAVSGVRLDNYAMGWFRQAPGKERESVAGISWSSGTLLYSDSVKGRFAISRDNAKNTVYLQMNSLKPEDTAVYYCAAQYQDRYYDEFTWKEKDMDYWGKGTLVTVSS
# notes: His6-Myc-tagged monovalent VHH; also called L-19.1a; I-19.1a
# B30: MU397 (VHH)
# VHH: DVQLQASGGGLVQAGGSLRLSCAPSGGTFDAYDMGWYREAPGKKRQFVAAVRSGGGTTRYADSVKGRFTISRDDAKDTVFLQMNSLKPEDTALYYCAADRWGLFSLSIATPTHWGQGTQVTVSS
# notes: His6-Myc-tagged monovalent VHH; also called L-15.1a; I-15.1a
# B31: MU370 (VHH)
# VHH: DVQLQASGGGSVQAGGSLTLSCRYSGGFVFRVSSMGWYRQAPGNQRELIATITVGGKTNYKDSVQGRFIISRNDTTVTLQMNRLQPEDTAVYYCNLASTAVGADTWGQGTRVTVSS
# notes: also called I-9.2a
# B32: MU737 (VHH)
# VHH: B1 VHH with T28S, E44A, F47I, S50T, S52T, W53R, S56G, R57S, G61A, I105S
# notes: His6-Myc-tagged monovalent VHH; also called s-14.1c; family 9
# B33: MU1053 (VHH)
# VHH: DVQLQESGGGLVQAGGSLRLSCTGSGRTFRNYPMAWFRQAPGKEREFVAGITWVGASTLYADFAKGRFTISRDNAKNTVYLQMNSLKPEDTAVYSCAAGRGIVAGRIPAEYADWGQGTQVTVSS
# notes: also called L-15.3; I-15.3a
# B34: MU725 (VHH)
# VHH: B12 VHH with A6E, E26G, S53N, D54N, G55N, S70A, H81Q, T108N
# notes: His6-Myc-tagged monovalent VHH; also called family 22
# Target: T1, human CD38 on cells (human, UniProt P28907 1-300)
# T1 construct: also called native CD38; CD38 on LP-1 myeloma cells, CD38-transfected NIH-3T3 cells, blood leukocytes, CD38-transfected DC27.10 cells
# Assay: binding assays of Example 4
row,Binder,binding result
1,B1,binds
2,B2,binds
3,B3,binds
4,B4,binds
5,B5,binds
6,B6,binds
7,B7,binds
8,B8,binds
9,B9,binds
10,B10,binds
11,B11,binds
12,B12,binds
13,B13,binds
14,B14,binds
15,B15,binds
16,B16,binds
17,B17,binds
18,B18,binds
19,B19,binds
20,B20,binds

# Target: T2, human CD38 protein immobilised on AR2G biosensor (human, UniProt P28907 43-300, limits assumed)
# T2 construct: Construct used on the Octet is not described; also called immobilised human CD38
# Assay: Octet BLI, immobilised CD38
row,Binder,koff [s⁻¹]
1,B21,< 0.00022
2,B22,0.00054
3,B23,0.00026
4,B24,< 0.00014
5,B25,< 0.0003

# Target: T3, soluble, non-glycosylated, recombinant human CD38 (human, UniProt P28907 43-300, Alexa 647 conjugate)
# T3 construct: also called recombinant human non-glycosylated extracellular domain of CD38
# Assay: micro-scale thermophoresis, n = 2
row,Binder,Kd [nM]
1,B26,1.38
2,B27,3
3,B28,23
4,B29,3
5,B30,1
6,B31,225

# Target: T1, human CD38 on cells
# Assay: flow cytometry on human blood, bound VHH detected with FITC anti-c-myc 9E10, MFI of CD3-negative lymphocytes
Binder,binding result,EC50 (read off the curve) [nM]
B32,binds,
B33,,~0.1
B34,binds,
